In patent US11441147B2 (priority 2013, dated 2022):
Like-named read-outs stand apart in the source and are kept apart here.

B1: CYP3RNA: 791 bp dsRNA complementary to all three Fg CYP51 genes, from stacked clone CYP51B-CYP51A-CYP51C; SEQ ID NO:7 (nucleic acid)
DNA: CAGCAAGTTTGACGAGTCCCTGGCCGCTCTCTACCACGACCTCGATATGGGCTTCACCCCCATCAACTTCATGCTTCACTGGGCCCCTCTCCCCTGGAACCGTAAGCGCGACCACGCCCAGCGCACTGTTGCCAAGATCTACATGGACACTATCAAGGAGCGCCGCGCCAAGGGCAACAACGAATCCGAGCATGACATGATGAAGCACCTTATGAACTCTCCATGGCGGCCGCGGGAATTCGATATCGGTCCATTGACAATCCCCGTCTTTGGTAGCGATGTCGTATACGATTGTCCCAACTCGAAGCTCATGGAACAAAAGAAGTTTGTCAAGTTTGGCCTTACGCAAAAAGCACTCGAGTCACACGTCCAGTTAATCGAGCGAGAGGTTCTTGACTACGTCGAAACTGATCCATCCTTTTCTGGCAGAACTAGCACCATCGATGTCCCCAAGGCAATGGCTGAGATAACAATCTTTACTGCCTCACGTTCTTTGCAGGGTGAGGAAGTTCGGAGAAAACTCACTGCCGAGTTTGCTGCCACTAGTATTGGAAGCACCGTACAATATGGCATCGACCCGTACGCTTTTTTCTTCGACTGCAGAGATAAATACGGCGACTGCTTTACCTTTATTCTCCTTGGCAAATCAACGACTGTCTTTCTTGGTCCCAAGGGCAATGACTTTATCCTCAACGGCAAACACGCCGATCTCAACGCCGAGGACGTTTATGGGAAACTTACCACGCCCGTGTTTGGTGAGGAGGTTGTTTATGACTGCTCCAATG
modifications: combines partial sequences of Fusarium graminearum CYP51B-CYP51A-CYP51C

How the values were obtained:
[1] = tested on: Fusarium graminearum (Fg) macroconidia; format: cell-based; conditions: for Morphology of Fg macroconidia (microscopic analysis): 1.5 μg dsRNA per 100 macroconidia in 100 μl SNA medium
GFP-expressing Fg strain = format: in vivo, Fusarium graminearum on Arabidopsis thaliana Col-0; conditions: 3 dpi; CYP3RNA-expressing leaves
Fg CYP51B = format: in vivo, Fusarium graminearum; conditions: 3 dpi; average of lines L1, L8, L10, L11 vs ev control line
CYP51C = format: cell-based, Fusarium graminearum; conditions: 72 hpt; normalized to beta-tubulin
Fg CYP51C = format: in vivo, Fusarium graminearum; conditions: 3 dpi; average of lines L1, L8, L10, L11 vs ev control line
[2] = tested on: Fusarium graminearum (Fg); conditions: 3 dpi
[3] = tested on: Fusarium graminearum (Fg); format: in vivo, Fusarium graminearum on barley; conditions: upper part sprayed, lower part inoculated after 2 days; 6 days after inoculation
[4] = tested on: siRNAs corresponding to the targeted CYP51 sequences; assay: Northern analysis of siRNAs in Arabidopsis leaves with CYP3RNA as probe; design: species or system Arabidopsis thaliana; conditions: Fg-infested and uninfested leaves from CYP3RNA-expressing plants
Description: For detecting siRNA, total RNA was extracted from the Arabidopsis lines using TRIzol reagent (Invitrogen) following the manufacturer's protocol. A total of 15 μg total RNA was separated in a 16% polyacrylamide-7 M urea gel, and transferred onto Hybond Nylon membrane (Amersham, UK) using a semidry blotter (BioRad) at constant current (250 mA) for 3 h. The RNA was UV-cross-linked to the membrane at 1200×100 μjoules (UV Stratalinker) energy. The membrane was pre-hybridized for 45 min at 42° C. in 20 ml PerfectHyb-Puffer (Sigma). The complete 791 bp CYP3RNA PCR amplicon was used as a template for random labeling (Random Primer DNA Labeling with Kit, NEB), added to the hybridization buffer, and hybridized overnight at 42° C. The membrane was washed twice at room temperature with 5×SSC+0.01% SDS. The membrane was exposed on phosphorimaging screens (Bio-Rad) and signals were detected using a molecular imager and the Quantity One software (BioRad). A parallel loading of low range RNA marker (Fermentas) was used as size marker.
It was further assessed whether this reduction in Fg CYP51 transcripts was associated with the production of corresponding siRNAs. In Northern analyses using CYP3RNA as the probe, siRNAs corresponding to the targeted CYP51 sequences in both Fg-infested and uninfested leaves from CYP3RNA-expressing plants were detected (FIG. 8). […]

Fg CYP51A = format: in vivo, Fusarium graminearum; conditions: 3 dpi; average of lines L1, L8, L10, L11 vs ev control line
[5] = tested on: Fusarium graminearum (Fg); format: in vivo, Fusarium graminearum on barley cultivar Golden Promise; conditions: 6 days after inoculation
[6] = tested on: Fusarium graminearum (Fg) macroconidia; format: cell-based; conditions: 0 hpt and 72 hpt; dose dependent, 75 μg to 1 μg dsRNA
CYP51A = format: cell-based, Fusarium graminearum; conditions: 72 hpt; normalized to beta-tubulin
CYP51B = format: cell-based, Fusarium graminearum; conditions: 72 hpt; normalized to beta-tubulin

| Molecule | Phenotype of Fg macroconidia ([1]; tebuconazole 5 mg/l, 72 h post treatment) | Morphology of Fg macroconidia (microscopic analysis) ([1]; 48 h post treatment) | Morphology of Fg macroconidia (microscopic analysis) ([1]; 72 h post treatment) | Fungal growth on intact leaves (GFP fluorescence) (GFP-expressing Fg strain) | Reduction of relative transcript level of Fg CYP51B (Fg CYP51B) [%] | CYP51C transcript level vs mock control (CYP51C) | Reduction of relative transcript level of Fg CYP51C (Fg CYP51C) [%] | Reduction of fungal mycelium formation on leaves (trypan blue microscopy) ([2]; CYP3RNA-expressing leaves vs Col-0 ev control) [%] | Disease symptoms on detached leaves ([2]; T2 lines L1, L8, L10, L11, 5×10^4 Fg macroconidia per ml) | Percentage of infested leaf area ([2]; four transgenic lines, ev controls 77%) [%] | Fungal growth at sprayed upper and unsprayed lower leaf area (relative amount of fungal DNA) [3] | siRNAs corresponding to the targeted CYP51 sequences [4] | Reduction of relative transcript level of Fg CYP51A (Fg CYP51A) [%] | Relative amount of fungal DNA (qPCR, normalized to plant ubiquitin DNA) ([5]; vs infected control leaves) | Fungal growth on sprayed leaves (infection symptoms) ([5]; dsRNA 20 ng/μl sprayed 48 h before inoculation, vs buffer or GFP-dsRNA) | Fungal growth (optical densities of Fg cultures at 600 nm) [6] | CYP51A transcript level vs mock control (CYP51A) | CYP51B transcript level vs mock control (CYP51B) |
| --- | --- | --- | --- | --- | --- | --- | --- | --- | --- | --- | --- | --- | --- | --- | --- | --- | --- | --- |
| CC(C)(C)C(O)(CCc1ccc(Cl)cc1)Cn1cncn1 (stereo not drawn) [tebuconazole, reference compound] | phenotype comparable to that elicited by CYP3RNA treatment | – | – | – | – | – | – | – | – | – | – | – | – | – | – | – | – | – |
| B1 | – | swelling of hyphal tips | morphological changes had become more pronounced | restricted to the inoculation site | 89 | significantly reduced | 77 | ~100 | no disease symptoms | 0.9 | observed not only at the CYP3RNA-treated upper leaf area but also at the lower leaf area | detected | 92 | significantly lower | significant inhibition of fungal growth | strongly inhibited | significantly reduced | significantly reduced |
